Patent US8852954, “Nucleic acid molecule having binding affinity to rodent-derived IgG antibody, binder, detection reagent, and detection kit” (NEC Solution Innovators, Ltd.)

Assays:
Conditions in all cases: chain copies: 2 heavy + 2 light chains (inferred); label: 5'-biotin; stem-loop (predicted)
[1] = molecular target: T1, mouse IgG3 (subtype 3 IgG antibody) (Mus musculus, UniProt P03987-2 P03987-2:1-329); assay: SPR; BIACORE 3000, 1:1 Langmuir
Procedure: (§1) The analysis of binding was performed using BIACORE 3000 (produced by GE Healthcare) according to its instruction manual. Further, from the signal intensity (RU: Resonance Unit) measured using the BIACORE, the analysis was performed with 1:1 Langmuir binding model using BIAevaluation software, and the dissociation constant between each of the aptamers and each of the mouse IgG antibodies was obtained. The conditions, method, and the like of the measurement using the BIACORE were according to the following documents.
(§2) FIGS. 5 to 7 are graphs showing the change in the signal intensity over time. […] Further, in each of the graphs, the vertical axis indicates the signal intensity (RU) measured using the BIACORE and the horizontal axis indicates the analysis time (sec). In the horizontal axis, "100 seconds" is the time when the injection of a target to be analyzed to a flow cell at the flow rate of 20 μL/min is started. The injection was maintained for 2 minutes (120 seconds), and then a running buffer was sent for 3 minutes (180 seconds) to obtain the sensorgrams showing the interaction between the aptamers and IgG. The global fitting analysis was performed and the sensorgrams were obtained under different target concentration conditions for obtaining correct Kd values.

[2] = molecular target: T2, mouse IgG2a (subtype 2a IgG antibody) (Mus musculus, UniProt P01863 P01863:1-330); assay: SPR; BIACORE 3000, 1:1 Langmuir
T2 sequence (P01863 whole entry, one chain of several): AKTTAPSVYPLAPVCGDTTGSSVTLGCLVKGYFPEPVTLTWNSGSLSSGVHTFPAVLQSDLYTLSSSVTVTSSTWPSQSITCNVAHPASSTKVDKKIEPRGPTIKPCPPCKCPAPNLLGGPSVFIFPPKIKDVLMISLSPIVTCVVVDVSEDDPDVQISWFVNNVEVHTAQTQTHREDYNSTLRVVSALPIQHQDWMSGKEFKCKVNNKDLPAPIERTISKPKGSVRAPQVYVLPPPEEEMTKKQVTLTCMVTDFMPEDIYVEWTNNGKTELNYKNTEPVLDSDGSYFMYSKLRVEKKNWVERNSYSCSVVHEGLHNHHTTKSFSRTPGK
Procedure: as §1, §2

[3] = molecular target: T1, mouse IgG3 (subtype 3 IgG antibody); assay: SPR; second measurement (Example 3)
Procedure: as §1
(§3) The experiment was performed in the same manner as in Example 2 except that MIG-m034, MIG-m035, MIG-m036, MIG-m037, and MIG-m040 were used as aptamers. FIGS. 8 to 10 are graphs showing the change in the signal intensity over time and respectively show the result obtained using the subtype 1 mouse IgG, the result obtained using the subtype 2a mouse IgG, and the result obtained using the subtype 3 mouse IgG. […] The results summarized in Table 3 tell that these aptamers each have high general versatility as a secondary antibody reagent and are good in the binding force. Further, since it was considered that the base pair in the stem region and U adjacent thereto are not involved in the binding of mouse IgG from Example 1, a clone having a systematic modified base was produced to obtain the Kd value. […]

[4] = molecular target: T2, mouse IgG2a (subtype 2a IgG antibody); assay: SPR; second measurement (Example 3)
Procedure: as §1, §3

[5] = molecular target: T1, mouse IgG3 (subtype 3 IgG antibody); assay: SPR; BIACORE 3000, 1:1 Langmuir; remark: listed apart in the source
Procedure: as §1
(§4) The experiment was performed in the same manner as in Example 2 except that MIG-m034, MIG-m035, MIG-m036, MIG-m037, and MIG-m040 were used as aptamers. FIGS. 8 to 10 are graphs showing the change in the signal intensity over time and respectively show the result obtained using the subtype 1 mouse IgG, the result obtained using the subtype 2a mouse IgG, and the result obtained using the subtype 3 mouse IgG. […] The results summarized in Table 3 tell that these aptamers each have high general versatility as a secondary antibody reagent and are good in the binding force. Further, since it was considered that the base pair in the stem region and U adjacent thereto are not involved in the binding of mouse IgG from Example 1, a clone having a systematic modified base was produced to obtain the Kd value. Since all the clones have substantially the same binding force to each of the mouse antibody subtypes, it was considered that the stem region was not involved in the binding with respect to all the subtypes and also that all the aptamers have the same binding mode to each of the subtypes.

[6] = molecular target: T2, mouse IgG2a (subtype 2a IgG antibody); assay: SPR; BIACORE 3000, 1:1 Langmuir; remark: listed apart in the source
Procedure: as §1, §4

T1 sequence (P03987 other isoform, or with tags, fused parts or gaps): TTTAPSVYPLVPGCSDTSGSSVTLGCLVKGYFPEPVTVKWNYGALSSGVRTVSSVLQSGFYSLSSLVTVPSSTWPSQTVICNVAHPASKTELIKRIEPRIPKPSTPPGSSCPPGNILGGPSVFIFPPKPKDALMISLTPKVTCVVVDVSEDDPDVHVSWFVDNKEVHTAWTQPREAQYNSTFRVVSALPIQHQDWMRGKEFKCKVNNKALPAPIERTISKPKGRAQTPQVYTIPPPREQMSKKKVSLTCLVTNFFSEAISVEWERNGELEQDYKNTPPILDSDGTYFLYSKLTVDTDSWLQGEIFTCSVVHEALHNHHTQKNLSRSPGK

Binder | Kd [1] [nM] | Kd [2] [nM] | Kd [3] [nM] | Kd [4] [nM] | Kd [5] [nM] | Kd [6] [nM]
AAAAACGCUGAAGAGAAGACGGAAGGAGACGAAGCGT (mixed, RNA with 5'-dA5 (1-5), LNA at C6 G7 C35 G36, 3'-dT37) [MIG-m034] | 8.8 | 0.995 | 8.33 | 1.09 | – | –
AAAAACGCUGAAGAGAAGACGGAAGGAGACGAAGCGT (mixed, RNA with 5'-dA5 (1-5), LNA at C6 G7 C35 G36, 2'-OMe U9, 3'-dT37) [MIG-m042] | 5.57 | 0.436 | – | – | – | –
AAAAAGCGCUGAAGAGAAGACGGAAGGAGACGAAGCGC (mixed, RNA with 5'-dA5 (1-5), DNA at G6 C7 G37 C38) [MIG-m036] | – | – | – | – | 13.8 | 4.61
AAAAAGCGCUGAAGAGAAGACGGAAGGAGACGAAGCGC (mixed, RNA with 5'-dA5 (1-5), DNA at 6-9 and 35-38) [MIG-m037] | – | – | – | – | 9.85 | 3.7
AAAAAGCGCUGAAGAGAAGACGGAAGGAGACGAAGCGC (mixed, RNA with 5'-dA5 (1-5), 2'-OMe U10) [MIG-m040] | – | – | – | – | 3.46 | 1.23
AAAAAGCGCUGAAGAGAAGACGGAAGGAGACGAAGCGC (mixed, RNA with 5'-dA5 (1-5), DNA at 6-9 and 35-38, 2'-OMe U10) [MIG-m041] | 8.4 | 0.959 | – | – | – | –
AAAAAGCUGAAGAGAAGACGGAAGGAGACGAAGCT (mixed, RNA with 5'-dA5 (1-5), LNA at G6 C7 G33 C34, 3'-dT35) [MIG-m035] | – | – | – | – | 139 | 1.92
